Reference: paper PMC4726241, “Crystal structure and SUMO binding of Slx1-Slx4 complex” (Scientific Reports, 2016)

Molecular target: T1, Slx1^RING+CT-Slx4^CCD complex (S. pombe, UniProt Q9P7M3 176-271; Q9P6M0 352-419)
T1 construct: Slx4, Schizosaccharomyces pombe, C-terminal conserved domain, residues 352-419; source: E. coli, co-expressed, purified by a procedure similar to that of Slx1^RING-Slx4^CCD; not shown: His6, N-terminal, cleaved
T1 sequence (looked up) 1: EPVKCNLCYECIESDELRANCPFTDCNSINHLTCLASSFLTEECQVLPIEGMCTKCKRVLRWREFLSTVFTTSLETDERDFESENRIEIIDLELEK
T1 sequence (looked up) 2: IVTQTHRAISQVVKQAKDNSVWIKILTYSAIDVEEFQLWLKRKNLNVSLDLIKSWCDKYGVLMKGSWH
Test: ITC; 2.37 mM Pmt3 injected into 120 μM complex in the cell; 25 °C; 20 mM sodium phosphate pH 6.8, 100 mM NaCl; three repeats
Details: both partners purified

B1: mature Pmt3 (S. pombe SUMO), residues 1-111 (natural protein, UniProt O13351 1-111, looked up)
chain: MSESPSANISDADKSAITPTTGDTSQQDVKPSTEHINLKVVGQDNNEVFFKIKKTTEFSKLMKIYCARQGKSMNSLRFLVDGERIRPDQTPAELDMEDGDQIEAVLEQLGG
notes: Pmt3 (SUMO), Schizosaccharomyces pombe, mature form, residues 1-111; Uniformly 15N-labelled for the NMR titrations; source: E. coli, purified by a procedure similar to that of the complex
For B1, the Kd was 78.3 ± 9.9 µM.
